Tested on: primary human cell cultures (11 cell types)
Experiment: Custom gene array, 11 human cell types in normoxia or hypoxia for 6 hr and 18 hr;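 as to mRNA expression level, #1 HY 18 hr: cell type #1 is adipocyte from subcutaneous adult adipose tissue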;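 as to mRNA expression level, #1 HY 6 hr: cell type #1 is adipocyte from subcutaneous adult adipose tissue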;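 as to mRNA expression level, #1 NO: cell type #1 is adipocyte from subcutaneous adult adipose tissue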;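 as to mRNA expression level, #2 HY 18 hr: cell type #2 is fetal cardiomyocyte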;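 as to mRNA expression level, #2 HY 6 hr: cell type #2 is fetal cardiomyocyte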;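 as to mRNA expression level, #2 NO: cell type #2 is fetal cardiomyocyte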;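 as to mRNA expression level, #3 HY 6 hr: cell type #3 is human umbilical vein endothelial cells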;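 as to mRNA expression level, #3 NO: cell type #3 is human umbilical vein endothelial cells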;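 as to mRNA expression level, #4 HY 18 hr: cell type #4 is adult dermal fibroblast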;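 as to mRNA expression level, #4 HY 6 hr: cell type #4 is adult dermal fibroblast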;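 as to mRNA expression level, #4 NO: cell type #4 is adult dermal fibroblast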;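 as to mRNA expression level, #6 HY 6 hr: cell type #6 is blood-derived macrophage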;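 as to mRNA expression level, #6 NO: cell type #6 is blood-derived macrophage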
Type: cell-based
Experimental: Equivalent cultures of non-immortalized, non-transformed primary human cells of 10 distinct types, were cultured in either normoxia or were exposed to hypoxia for 6 hr and 18 hr, and gene expression changes were determined. […] Moreover, unlike the vast majority of information in the public domain relating to genes responsive to hypoxia, all of these cells were human and were cultured without any modifications following isolation from the human donors.
A non-primary cell type (#9) was used to represent neurons, since primary human neurons are difficult to source. Therefore a total of 11 cell types are compared. It should be noted that RNA from hepatocytes at the […] timepoint of hypoxia was not available for this work.
Each RNA sample was hybridised to duplicate or triplicate arrays, to ensure reproducible data, and was analysed using GeneSpring software. Data from replicate arrays were merged during analysis to generate mean values. Data normalisation was achieved per-array using the aforementioned list of control genes, such that differences in RNA labelling or hybridization due to experimental variation were corrected by referencing each gene to the mean value of the reference genes on the same array. Also, for each gene, expression values were obtained which represent the value in each experimental condition (e.g. macrophages 6 hr hypoxia) as compared to the median of value of that gene throughout the full range of experimental conditions (i.e. from all cell types). […] This is common in microarray data analysis.

[1] = cell type #1, HY (hypoxia) 6 hr
[2] = cell type #1, HY (hypoxia) 18 hr
[3] = cell type #2, HY (hypoxia) 6 hr
[4] = cell type #2, HY (hypoxia) 18 hr
[5] = cell type #3, HY (hypoxia) 6 hr
[6] = cell type #3, HY (hypoxia) 18 hr
[7] = cell type #4, HY (hypoxia) 6 hr
[8] = cell type #4, HY (hypoxia) 18 hr
[9] = cell type #5, HY (hypoxia) 6 hr
[10] = cell type #6, HY (hypoxia) 6 hr

B1: p1E9 (nucleic acid, listed as Homo Sapiens)
DNA: AGACCCCCCAGGGTGCCTCCGAGAGCTGCCTCACAGAGGACTCCGACCAGGGAGACCTTCCATCCTCCTCCACCTGTTCCACCCAGAGGACGCTGATTCCACCTCCTAAAACCTGCCTACTTCAGGACTTTAAGACTCACAGTCTTCAGCCTGTTAATGATGTCTTCATGTTGAGTTTTATAGCATGACTGTTGACCTTAAGATCCATTCTCATTGCTGATAATGCTGCAGCCCTGCTGGTTTGGGCTTGCTCGAAGATTTTATTAAGGCACGAAGAAGTGAAAAACTAAGGGCTTCATTCACCATCACCAAGTATATCGAACCATATACTTGTTTGCCAAAAGGGTGGAAGGACTTTAATTCGGAAATACTTTACCTCTTAATTTGGCCATATTCAGGAGGCCTAAAAGGATTGATCCNTAATGTTATTTCACCGTGGTTTTTATTGAATGG
modifications: misc_feature 420: n = A,T,C or G
mRNA expression level, #1 HY 6 hr (cell type #1, hypoxia 6 hr): 0.89 | mRNA expression level, #1 HY 18 hr (cell type #1, hypoxia 18 hr): 1.48 | mRNA expression level, #1 NO (cell type #1, normoxia): 1.54 | mRNA expression level, #2 HY 6 hr (cell type #2, hypoxia 6 hr): 1.80 | mRNA expression level, #2 HY 18 hr (cell type #2, hypoxia 18 hr): 1.53 | mRNA expression level, #2 NO (cell type #2, normoxia): 1.18 | mRNA expression level, #3 HY 6 hr (cell type #3, hypoxia 6 hr): 0.82 | mRNA expression level, #3 HY 18 hr (cell type #3, hypoxia 18 hr): 0.60 | mRNA expression level, #3 NO (cell type #3, normoxia): 0.68 | mRNA expression level, #4 HY 6 hr (cell type #4, hypoxia 6 hr): 0.64 | mRNA expression level, #4 HY 18 hr (cell type #4, hypoxia 18 hr): 0.73 | mRNA expression level, #4 NO (cell type #4, normoxia): 0.60 | mRNA expression level, #5 HY 6 hr (cell type #5, hypoxia 6 hr): 1.62 | mRNA expression level, #5 NO (cell type #5, normoxia): 0.92 | mRNA expression level, #6 HY 6 hr (cell type #6, hypoxia 6 hr): 3.97 | #6 HY 18 hr (mRNA expression level) (cell type #6, hypoxia 18 hr): 6.19 | mRNA expression level, #6 NO (cell type #6, normoxia): 4.20 | #7 HY 6 hr (mRNA expression level) (cell type #7, hypoxia 6 hr): 0.42 | #7 HY 18 hr (mRNA expression level) (cell type #7, hypoxia 18 hr): 0.18 | #7 NO (mRNA expression level) (cell type #7, normoxia): 0.25 | #8 HY 6 hr (mRNA expression level) (cell type #8, hypoxia 6 hr): 3.63 | #8 HY 18 hr (mRNA expression level) (cell type #8, hypoxia 18 hr): 5.01 | #8 NO (mRNA expression level) (cell type #8, normoxia): 2.33 | #9 HY 6 hr (mRNA expression level) (cell type #9, hypoxia 6 hr): 0.80 | #9 HY 18 hr (mRNA expression level) (cell type #9, hypoxia 18 hr): 0.85 | #9 NO (mRNA expression level) (cell type #9, normoxia): 0.93 | #10 HY 6 hr (mRNA expression level) (cell type #10, hypoxia 6 hr): 0.61 | #10 HY 18 hr (mRNA expression level) (cell type #10, hypoxia 18 hr): 0.61 | #10 NO (mRNA expression level) (cell type #10, normoxia): 0.57 | #11 HY 6 hr (mRNA expression level) (cell type #11, hypoxia 6 hr): 1.37 | #11 HY 18 hr (mRNA expression level) (cell type #11, hypoxia 18 hr): 1.17 | #11 NO (mRNA expression level) (cell type #11, normoxia): 1.58 | HIGHEST FOLD CHANGE IN HYPOXIA (hr hypoxia + cell type) (hypoxia/normoxia induction ratio, 18 hr monocyte): 2.15 (18 hr monocyte) fold

B2: p1G22 (nucleic acid, listed as Homo Sapiens)
DNA: TTTTTTTTTGTTTCTGTTTTGTTTTTTCTTTTGCACTGATATATACCATACCAACATTGCAAGATGCAAAGTGTGGAAACTGGAGTTTAAATAAAATTACAAGGCAAAACTACCCCATCCCAAGTGCGGTTGCTGTACATATCTACAGTACAATTTTTGGAATGTATTGCCATTTAAGAACATAGAAACTTTCTACAGACAATTTCACATACAGAATACGTACACCTTTTAGAAAAAAAGGCAAATATTTATCTTACAGAGAGCATTGTATTTTACATTTGCCTGCACGTTTCTTTTTTCTGTTTCTTTTCTTTCTTTCTTTTTTTACATACTAGGATTTATTAAAGTGACCATAAGGTGCCCGANGCGGGTTTTCTAATGGGNAAGCAGACTGGGNTTCACCAACACAGGNGCAGGATTGGGTGGGACAGGCTTTCGGGGACCTTTCTTCCCCTGGGNCACACGGGCAGATCCGGTCCCCAAGGGCAGGNTGTTCAGCCNGGGGCTTTTNCTTTT
modifications: misc_feature 366, 384, 397, 412, 459, 491, 501, 511: n = A,T,C or G
HIGHEST FOLD CHANGE IN HYPOXIA (hr hypoxia + cell type) (DOWN, 18 hr mam epithelial): 2.38 DOWN (18 hr mam epithelial) ^ fold | mRNA expression level [1]: 0.78 | mRNA expression level [2]: 0.72 | mRNA expression level (cell type #1, NO (normoxia)): 1.14 | mRNA expression level [3]: 2.67 | mRNA expression level [4]: 1.41 | mRNA expression level (cell type #2, NO (normoxia)): 2.75 | mRNA expression level [5]: 12.7 | mRNA expression level [6]: 8.79 | mRNA expression level (cell type #3, NO (normoxia)): 8.35 | mRNA expression level [7]: 1.21 | mRNA expression level [8]: 1.01 | mRNA expression level (cell type #4, NO (normoxia)): 1.35 | mRNA expression level [9]: 0.70 | mRNA expression level (cell type #5, NO (normoxia)): 0.59 | mRNA expression level [10]: 0.63 | mRNA expression level (cell type #6, NO (normoxia)): 0.77

B3: p1G21 (nucleic acid, listed as Homo Sapiens)
DNA: TTTTACATACTAGATTTATTAAAGTGACCATAAGTGCCGAAGCGGTTTTCTAATGGAAAGCAGACTGGATTCACAACACAGAAGCAGAATTGGTGGAACAGGCTTTCGGGAACTTTCTTCCCCTGGTCACACGGCAGATCGGTCCCCAAGGACAGGTGCTCAGCCAGGACTTTTGCTTTAAGAAGGATTTGTCTNGAGAAAGGACTAGAGAGAAATCCAGCTCAGATGTATTGCTCATTCCTCTTCAGAAGGACTGGGTNGGAATGGAGCAGGGGCTAGAGGAATCTGGAAGCTAATTCTTTTAGGCTTTTTCCAACAGAGGGAAGCAGAGGGACTTCTGGGTCTTGAAGTTTGGAGCTTACGGAGGCGA
modifications: misc_feature 195, 260: n = A,T,C or G
HIGHEST FOLD CHANGE IN HYPOXIA (hr hypoxia + cell type) (DOWN, 6 hr macrophage): 1.85 DOWN (6 hr macrophage) ^ fold | mRNA expression level [1]: 1.01 | mRNA expression level [2]: 0.55 | mRNA expression level (cell type #1, NO (normoxia)): 0.99 | mRNA expression level [3]: 1.48 | mRNA expression level [4]: 1.10 | mRNA expression level (cell type #2, NO (normoxia)): 2.02 | mRNA expression level [5]: 1.13 | mRNA expression level [6]: 0.80 | mRNA expression level (cell type #3, NO (normoxia)): 1.54 | mRNA expression level [7]: 0.65 | mRNA expression level [8]: 0.60 | mRNA expression level (cell type #4, NO (normoxia)): 0.78 | mRNA expression level [9]: 1.35 | mRNA expression level (cell type #5, NO (normoxia)): 0.72 | mRNA expression level [10]: 0.69 | mRNA expression level (cell type #6, NO (normoxia)): 1.28
